From the supplement of paper PMC10126150
± gives the standard deviation of the averaged measurements.

Test system: ATP
Experiment: switch fluorescence ratio, 500 uM ATP over buffer (Cy3 cluster intensity, sum of 5 cycles each) (fold (ratio)); higher = stronger signal-on switching upon ATP binding; sequences stand for … in TCGTCGGCAGCGTCAGATGTGTATAAGAGACAGTTTTTTTTTTTTTTTTTTTTTTTTT…TC
Details: aptamer strand: ATP DNA aptamer (quencher-CACCTGGGGGAGTATTGCGGAGGAAGG + anchor), 100 nM annealed; ATP concentration: 500 uM
Method in brief: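 Imaging in selection buffer was followed by imaging after 15 min with 500 uM ATP at 22 °C, for Cy3-labelled switching-strand clusters annealed to 100 nM quencher-labelled ATP aptamer on a modified Illumina MiSeq flow-cell. Five of these buffer/ATP cycles ran, separated by NaOH stripping and re-annealing. The fluorescence ratio per cluster is summed target-cycle over summed buffer-cycle Cy3 intensity, averaged per switch-domain sequence; clusters outside 100-1000 RFU were removed.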
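Note: ATP exposure 15 min at 22 °C before imaging.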

Sequence	switch fluorescence ratio
AAAAAAAAGC	1.03 ± 0.038
AAAAAAAGGA	1.01 ± 0.021
AAAAAAAGGC	0.998 ± 0.042
AAAAAAATCG	1.01 ± 0.028
AAAAAAATTT	1 ± 0.029
AAAAAAGTGC	1.04 ± 0.051
AAAAAAGTTC	0.984 ± 0.022
AAAAAATACG	1.09 ± 0.091
AAAAAATAG	0.985 ± 0.013
AAAAAATTAG	0.996 ± 0.05
AAAAAATTAT	1.03 ± 0.087
AAAAACGCTA	1.14 ± 0.026
AAAAACTAGT	1.04 ± 0.035
AAAAACTTGT	1.03 ± 0.034
AAAAAGAAGA	0.976 ± 0.033
AAAAAGCGGT	0.984 ± 0.029
AAAAAGCTCG	0.985 ± 0.064
AAAAAGGGGT	1.15 ± 0.34
AAAAAGGTTA	0.998 ± 0.025
AAAAAGTCAT	0.967 ± 0.021
AAAAATATTT	1.61 ± 0.86
AAAAATCGAG	1.0015 ± 0.00019
AAAAATCGGT	0.996 ± 0.044
AAAAATGCTT	1.02 ± 0.066
AAAAATGGGG	0.972 ± 0.0098

Sequence	switch fluorescence ratio
AAAAATGGGT	1 ± 0.016
AAAAATGGTT	1.02 ± 0.014
AAAACAAATA	0.9968 ± 0.0089
AAAACAAGGA	1.01 ± 0.041
AAAACAGCCG	0.957 ± 0.1
AAAACCAGAC	1.53 ± 0.078
AAAACGAAAT	1.02 ± 0.032
AAAACGAATG	1.05 ± 0.065
AAAACGGATT	0.977 ± 0.014
AAAACGTGGG	1.02 ± 0.022
AAAACTCCGA	1.07 ± 0.097
AAAACTTCTT	1 ± 0.013
AAAACTTTGC	1.02 ± 0.039
AAAAGAATGT	0.993 ± 0.021
AAAAGACCCT	1.04 ± 0.071
AAAAGACGGG	1.03 ± 0.022
AAAAGAGGGG	1 ± 0.031
AAAAGATCAT	0.999 ± 0.012
AAAAGGACGG	1.044 ± 0.0036
AAAAGGAG	1.01 ± 0.016
AAAAGGAGGG	0.999 ± 0.013
AAAAGGGCGC	1.03 ± 0.045
AAAAGGGGG	0.976 ± 0.018
AAAAGGGGGT	1.02 ± 0.049
AAAAGGGGTC	0.9959 ± 0.0053

Sequence	switch fluorescence ratio
AAAAGGGTCT	1.02 ± 0.024
AAAAGGTTAT	1.02 ± 0.027
AAAAGTAATT	0.985 ± 0.021
AAAAGTAGTT	1.01 ± 0.038
AAAAGTGTTT	0.99 ± 0.033
AAAATAATGG	0.998 ± 0.04
AAAATACTAT	1.02 ± 0.026
AAAATAGTGT	1.013 ± 0.01
AAAATATGCC	1.02 ± 0.026
AAAATATGGT	1.01 ± 0.033
AAAATCTGTT	1.02 ± 0.061
AAAATGCGCA	1.02 ± 0.037
AAAATGCGGA	0.9951 ± 0.003
AAAATGGCGT	0.9694 ± 0.004
AAAATGGGGT	1.02 ± 0.052
AAAATGGTAT	1.01 ± 0.038
AAAATGGTGT	1.002 ± 0.0083
AAAATGGTTT	0.994 ± 0.037
AAAATGTTCC	1.19 ± 0.025
AAAATTAACG	1.04 ± 0.028
AAAATTATCT	1.01 ± 0.021
AAAATTATGG	0.968 ± 0.02
AAAATTCTGG	0.973 ± 0.034
AAAATTGCAT	0.993 ± 0.021
AAAATTTAAT	1.01 ± 0.016

Sequence	switch fluorescence ratio
AAAATTTAGG	0.986 ± 0.03
AAACAAAAAT	1.01 ± 0.012
AAACAATGTG	0.972 ± 0.013
AAACAGAATG	0.975 ± 0.014
AAACAGGTTG	1.05 ± 0.019
AAACATGGAG	1 ± 0.019
AAACATGGTG	1.03 ± 0.022
AAACCCTGAG	1.14 ± 0.2
AAACGATGTT	1.02 ± 0.055
AAACGCAACC	1.57 ± 0.089
AAACGCCTGC	1.08 ± 0.026
AAACGGAG	1.007 ± 0.0081
AAACGGATGG	0.968 ± 0.016
AAACGGATTC	0.999 ± 0.052
AAACGGGGGG	0.99 ± 0.024
AAACGGGGTA	1.01 ± 0.033
AAACGGGTTC	1.01 ± 0.036
AAACGGTAGC	1.07 ± 0.017
AAACGTACTT	1.58 ± 0.086
AAACGTGAGT	0.985 ± 0.01
AAACTAGCGG	1.02 ± 0.016
AAACTAGCTG	1 ± 0.025
AAACTCAACG	1.08 ± 0.031
AAACTCTCCA	1.04 ± 0.02
AAACTGGAT	1.01 ± 0.033

Sequence	switch fluorescence ratio
AAACTGGGAT	1.01 ± 0.033
AAACTGTACT	1.425 ± 0.0099
AAACTTAGCA	1.02 ± 0.012
AAACTTCGGG	1 ± 0.026
AAACTTGGGG	1 ± 0.035
AAAGAAAGGT	1.02 ± 0.024
AAAGAAGTGG	0.959 ± 0.027
AAAGAATTCA	1.05 ± 0.051
AAAGACGCGG	0.992 ± 0.015
AAAGACGTTT	1 ± 0.016
AAAGAGCAAG	1.11 ± 0.034
AAAGATAGGC	0.954 ± 0.072
AAAGATCGGA	0.983 ± 0.038
AAAGATTGAC	1.01 ± 0.08
AAAGCACTAG	1.11 ± 0.055
AAAGCACTTT	1.099 ± 0.0022
AAAGCCCGCG	0.961 ± 0.066
AAAGCGGATT	1 ± 0.018
AAAGCTCGCT	0.973 ± 0.015
AAAGCTTTGG	0.963 ± 0.021
AAAGGAAATT	1 ± 0.033
AAAGGAGGTA	1 ± 0.012
AAAGGATCGG	0.9923 ± 0.0056
AAAGGCAAAG	0.9971 ± 0.0082
AAAGGCGTGG	0.9555 ± 0.0064

Sequence	switch fluorescence ratio
AAAGGCTTGG	0.992 ± 0.015
AAAGGGAAAA	1 ± 0.028
AAAGGGACGT	0.991 ± 0.051
AAAGGGCAAT	1.14 ± 0.18
AAAGGGCGAT	0.976 ± 0.011
AAAGGGCGGC	0.992 ± 0.018
AAAGGGGCGC	0.993 ± 0.035
AAAGGGGGCA	0.99 ± 0.031
AAAGGGGGGC	1 ± 0.057
AAAGGGGGTC	1.01 ± 0.039
AAAGGGGTAT	1.03 ± 0.027
AAAGGGGTTG	1.01 ± 0.072
AAAGGGTAAG	0.975 ± 0.015
AAAGGGTCGA	1.02 ± 0.03
AAAGGGTGAG	0.9726 ± 0.0064
AAAGGGTGCT	1.1 ± 0.015
AAAGGTAACG	1.001 ± 0.0021
AAAGGTCAT	0.9933 ± 0.0018
AAAGGTGCCT	1.05 ± 0.031
AAAGGTGGCG	1.07 ± 0.19
AAAGGTTTAC	0.978 ± 0.025
AAAGTACTCG	1.12 ± 0.0043
AAAGTAGTGT	1.024 ± 0.004
AAAGTCATGT	1.02 ± 0.05
AAAGTCGCGC	1.01 ± 0.018

Sequence	switch fluorescence ratio
AAAGTCTGAT	0.959 ± 0.027
AAAGTCTTGT	1.01 ± 0.035
AAAGTGAAGG	0.996 ± 0.027
AAAGTGGGCG	1.13 ± 0.18
AAAGTGTGCC	0.962 ± 0.013
AAAGTGTTGC	1.05 ± 0.042
AAAGTGTTGG	1.02 ± 0.022
AAAGTGTTTC	0.986 ± 0.029
AAAGTTATAC	1.12 ± 0.037
AAAGTTCGTA	0.985 ± 0.039
AAAGTTGCTA	0.985 ± 0.019
AAAGTTTACA	1.03 ± 0.014
AAAGTTTTCC	1.08 ± 0.074
AAATAAAAAG	1.01 ± 0.027
AAATAAACGG	1.08 ± 0.14
AAATAAGGAG	1.02 ± 0.033
AAATAATGAT	1 ± 0.021
AAATAATTCG	0.997 ± 0.032
AAATAATTTC	1 ± 0.027
AAATACAAGG	1.15 ± 0.24
AAATACGTAT	1.04 ± 0.046
AAATAGAGTT	0.998 ± 0.013
AAATATTTTA	0.999 ± 0.015
AAATCACGTC	1.07 ± 0.019
AAATCAGATA	0.987 ± 0.033

Sequence	switch fluorescence ratio
AAATCCTATT	0.982 ± 0.016
AAATCGAAAC	1.03 ± 0.038
AAATCGGAAT	1.25 ± 0.27
AAATCGGCGG	0.991 ± 0.05
AAATCGGGTT	1.15 ± 0.28
AAATCGTTCC	2.14 ± 0.082
AAATCGTTTT	0.972 ± 0.047
AAATCTAGAC	0.998 ± 0.011
AAATCTCTTA	0.997 ± 0.015
AAATCTGCTG	1 ± 0.061
AAATCTGTCA	1.03 ± 0.02
AAATCTTAAA	0.9917 ± 0.0023
AAATGAATGG	1.0177 ± 0.00097
AAATGACAGC	1.06 ± 0.037
AAATGACGGC	0.988 ± 0.15
AAATGACGTC	1.01 ± 0.023
AAATGATTGG	0.982 ± 0.019
AAATGCCGTT	0.982 ± 0.015
AAATGCTAGC	1.01 ± 0.039
AAATGCTTAT	1.04 ± 0.022
AAATGGAACC	1.04 ± 0.065
AAATGGGAGC	0.99 ± 0.031
AAATGGGGAC	0.9777 ± 0.0029
AAATGGGGAT	1.01 ± 0.032
AAATGGGTAG	0.9692 ± 0.0062
